The target in assay [1] is P. aeruginosa RloA2 (PA0462), residues 18-169 (P. aeruginosa). Put plainly: SEC-MALS; 5 mg/mL (289 µM) protein on Superdex 200 Increase 10/300 in 25 mM Tris-HCl pH 7.5, 300 mM NaCl, 0.7 mL/min. A general note: SEC sorts molecules by how far they enter the pores of the column.
The target of assay [2] is P. fluorescens RloA (Pfl01_1762), residues 20-178 (P. fluorescens). The description is as above.

One may read the stoichiometry N as a count of units in the complex or per binding partner. Substance “P. aeruginosa RloA2 (PA0462), residues 18-169 (enzyme)” came in with a stoichiometry N in assay [1] of 2.
“P. fluorescens RloA (Pfl01_1762), residues 20-178 (enzyme)” showed a stoichiometry N in assay [2] of 2.

For the origin of these results see paper PMC12239564.
